In article PMC6250670:

Target: MucR from Brucella abortus (wild-type full-length protein) (Brucella abortus)
Assay: SEC-MALS

“MucR from Brucella abortus (wild-type full-length protein) (natural protein)” showed a stoichiometry N of 10.4.
